Reference: publication PMC12261083, “Two DNA-binding One Zinc Finger transcription factors, MdCDOF3 and MdDOF3.6, accelerate leaf senescence by activating cytokinin oxidase MdCKX7 in response to sorbitol signaling in apple”

T1: MdDOF3.6 (Malus domestica, UniProt A0A498JFY8 1-358)
T1 sequence: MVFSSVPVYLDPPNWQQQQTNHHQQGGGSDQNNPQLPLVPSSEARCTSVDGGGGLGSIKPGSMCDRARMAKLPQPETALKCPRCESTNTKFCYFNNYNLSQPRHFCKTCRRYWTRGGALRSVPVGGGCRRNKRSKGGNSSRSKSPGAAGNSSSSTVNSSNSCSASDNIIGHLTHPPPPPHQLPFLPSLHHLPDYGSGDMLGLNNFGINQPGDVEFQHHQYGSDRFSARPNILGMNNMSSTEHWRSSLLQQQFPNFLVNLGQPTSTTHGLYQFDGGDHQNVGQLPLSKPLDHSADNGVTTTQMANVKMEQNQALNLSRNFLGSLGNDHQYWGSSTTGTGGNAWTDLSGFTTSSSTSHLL

B1: MdCKX7 promoter P4 probe (dsDNA)
DNA 1: GATACTATTCACTTTACCCTTTATTCTGTCCTTATC
DNA 2: GATAAGGACAGAATAAAGGGTAAAGTGAATAGTATC
B2: MdCKX7 promoter P4 mutant probe (dsDNA)
DNA 1: GATACTAAAAAAAAAAAAAAAAAAAAAATCCTTATC
DNA 2: GATAAGGATTTTTTTTTTTTTTTTTTTTTTAGTATC

Assays:
MdDOF3.6 [1] = molecular target: T1, MdDOF3.6; test: EMSA; not stated (EMSA according to cited protocol; biotin-labelled probes, Beyotime kit); conditions: protein: recombinant; tags: His; label: biotin
MdDOF3.6 [2] = molecular target: T1, MdDOF3.6; test: EMSA; mutated probe; shift disappeared; not stated (EMSA according to cited protocol; biotin-labelled probes, Beyotime kit); conditions: protein: recombinant; tags: His

| Binder | binding result (MdDOF3.6 [1]) | binding result (MdDOF3.6 [2]) |
| --- | --- | --- |
| B1 | binds |  |
| B2 |  | no binding |
